Substrate in data set [1]: O=C(CO)COP(=O)(O)O
The data set can be described thus: initial rates, plate reader, Michaelis-Menten fit. In kind it is biochemical, Escherichia coli. As to conditions: free enzyme, 30 °C, forward direction inferred (only PGI and PGK stated as reverse), substrate inferred from pathway. The source says: initial rates, plate reader, Michaelis-Menten fit on Triose phosphate isomerase (TPI)

Substrate in data set [2]: O=C(O)[C@@H](CO)OP(=O)(O)O
The data set is described as follows: initial rates, plate reader, Michaelis-Menten fit. In kind it is biochemical, Escherichia coli. As to conditions: free enzyme, 30 °C, substrate inferred from pathway. The source says:
initial rates, plate reader, Michaelis-Menten fit on Enolase (Eno)

Substrate in the data set “purified protein”: O=C[C@H](O)COP(=O)(O)O
The data set is described as follows: purified protein. The note with it: free enzyme, 30 °C, cosubstrates saturating, varied substrate inferred from pathway.

Substrate in data set [3]: CC(=O)C(=O)O
The data set is described as follows: initial rates, plate reader, Michaelis-Menten fit. As to conditions: free enzyme, 30 °C, cosubstrate saturating, varied substrate inferred from pathway. In kind it is biochemical, Escherichia coli. The source says: initial rates, plate reader, Michaelis-Menten fit on Lactate dehydrogenase (LDH)

Substrate in data set [4]: O=C(O)[C@H](O)COP(=O)(O)O
The data set is described as follows: initial rates, plate reader, Michaelis-Menten fit. It counts as biochemical, Escherichia coli. The note with it: free enzyme, 30 °C, forward direction. An excerpt:
initial rates, plate reader, Michaelis-Menten fit on Phosphoglycerate mutase (PGM)

The values below come from publication PMC10060375, “Self assembling nanoparticle enzyme clusters provide access to substrate channeling in multienzymatic cascades” (Nature Communications, 2023).

B1: Triose phosphate isomerase (TPI) (Escherichia coli K-12) (protein)
chain: MRHPLVMGNWKLNGSRHMVHELVSNLRKELAGVAGCAVAIAPPEMYIDMAKREAEGSHIMLGAQNVDLNLSGAFTGETSAAMLKDIGAQYIIIGHSERRTYHKESDELIAKKFAVLKEQGLTPVLCIGETEAENEAGKTEEVCARQIDAVLKTQGAAAFEGAVIAYEPVWAIGTGKSATPAQAQAVHKFIRDHIAKVDANIAEQVIIQYGGSVNASNAAELFAQPDIDGALVGGASLKADAFAVIVKAAEAAKQA
notes: full length, terminal His6 kept; E. coli BL21(DE3)
With B1, in data set [1], the Michaelis-Menten constant (Km) was 1.717 ± 0.236 mM, the maximal velocity (Vmax) is 34.9 µM/min, the kcat turned out to be 194 ± 12 s⁻¹ and the kcat/Km was found to be 113000 ± 17000 M⁻¹ s⁻¹.

B2: Enolase (Eno) (Escherichia coli K-12) (protein)
chain: SKIVKIIGREIIDSRGNPTVEAEVHLEGGFVGMAAAPSGASTGSREALELRDGDKSRFLGKGVTKAVAAVNGPIAQALIGKDAKDQAGIDKIMIDLDGTENKSKFGANAILAVSLANAKAAAAAKGMPLYEHIAELNGTPGKYSMPVPMMNIINGGEHADNNVDIQEFMIQPVGAKTVKEAIRMGSEVFHHLAKVLKAKGMNTAVGDEGGYAPNLGSNAEALAVIAEAVKAAGYELGKDITLAMDCAASEFYKDGKYVLAGEGNKAFTSEEFTHFLEELTKQYPIVSIEDGLDESDWDGFAYQTKVLGDKIQLVGDDLFVTNTKILKEGIEKGIANSILIKFNQIGSLTETLAAIKMAKDAGYTAVISHRSGETEDATIADLAVGTAAGQIKTGSMSRSDRVAKYNQLIRIEEALGEKAPYNGRKEIKGQA
notes: as for B1
In the case of B2, in data set [2], the Km was 2.04 ± 0.072 mM, the Vmax came out at 4.14 µM/min, the turnover number (kcat) was 22.9 ± 3 s⁻¹ and the specificity constant (kcat/Km) stood at 11200 ± 4300 M⁻¹ s⁻¹.

B3: Glyceraldehyde-3-phosphate dehydrogenase (GPD) (Escherichia coli K-12) (protein)
chain: TIKVGINGFGRIGRIVFRAAQKRSDIEIVAINDLLDADYMAYMLKYDSTHGRFDGTVEVKDGHLIVNGKKIRVTAERDPANLKWDEVGVDVVAEATGLFLTDETARKHITAGAKKVVMTGPSKDNTPMFVKGANFDKYAGQDIVSNASCTTNCLAPLAKVINDNFGIIEGLMTTVHATTATQKTVDGPSHKDWRGGRGASQNIIPSSTGAAKAVGKVLPELNGKLTGMAFRVPTPNVSVVDLTVRLEKAATYEQIKAAVKAAAEGEMKGVLGYTEDDVVSTDFNGEVCTSVFDAKAGIALNDNFVKLVSWYDNETGYSNKVLDLIAHISK
In the case of B3, in “purified protein”, the Km was determined as 3.494 ± 1.039 mM, the Vmax amounted to 0.6 µM/min, the kcat is 3.2 s⁻¹ and the kcat/Km is 920 M⁻¹ s⁻¹.

B4: Lactate dehydrogenase (LDH) (Escherichia coli K-12) (protein)
chain: MKLAVYSTKQYDKKYLQQVNESFGFELEFFDFLLTEKTAKTANGCEAVCIFVNDDGSRPVLEELKKHGVKYIALRCAGFNNVDLDAAKELGLKVVRVPAYDPEAVAEHAIGMMMTLNRRIHRAYQRTRDANFSLEGLTGFTMYGKTAGVIGTGKIGVAMLRILKGFGMRLLAFDPYPSAAALELGVEYVDLPTLFSESDVISLHCPLTPENYHLLNEAAFEQMKNGVMIVNTSRGALIDSQAAIEALKNQKIGSLGMDVYENERDLFFEDKSNDVIQDDVFRRLSACHNVLFTGHQAFLTAEALTSISQTTLQNLSNLEKGETCPNELV
notes: full length, terminal His6 kept; E. coli BL21(DE3); EC 1.1.1.28
Take B4: in data set [3], the Michaelis constant (Km) is 31.47 ± 6.901 mM, the maximal velocity (Vmax) is 14.4 µM/min, the kcat came to 95.5 ± 10.4 s⁻¹ and the specificity constant (kcat/Km) is 3040 ± 740 M⁻¹ s⁻¹.

B5: Phosphoglycerate mutase (PGM) (Escherichia coli K-12) (protein)
chain: MLVSKKPMVLVILDGYGYREEQQDNAIFSAKTPVMDALWANRPHTLIDASGLEVGLPDRQMGNSEVGHVNLGAGRIVYQDLTRLDVEIKDRAFFANPVLTGAVDKAKNAGKAVHIMGLLSAGGVHSHEDHIMAMVELAAERGAEKIYLHAFLDGRDTPPRSAESSLKKFEEKFAALGKGRVASIIGRYYAMDRDNRWDRVEKAYDLLTLAQGEFQADTAVAGLQAAYARDENDEFVKATVIRAEGQPDAAMEDGDALIFMNFRADRAREITRAFVNADFDGFARKKVVNVDFVMLTEYAADIKTAVAYPPASLVNTFGEWMAKNDKTQLRISETEKYAHVTFFFNGGVEESFKGEDRILINSPKVATYDLQPEMSSAELTEKLVAAIKSGKYDTIICNYPNGDMVGHTGVMEAAVKAVEALDHCVEEVAKAVESVGGQLLITADHGNAEQMRDPATGQAHTAHTNLPVPLIYVGDKNVKAVEGGKLSDIAPTMLSLMGMEIPQEMTGKPLFIVE
notes: as for B1
On to B5, for which the Michaelis-Menten constant (Km) in data set [4] stood at 3.584 ± 1.138 mM.

A word on the Km: it is the concentration of substrate that gives half-maximal velocity. By Vmax is commonly meant the rate approached at saturating substrate. By kcat is commonly meant the number of substrate molecules converted per active site and unit of time at saturation. As a reminder, the kcat/Km is the second-order rate constant that governs catalysis at low substrate concentration.
